Assay results published in doi:10.1101/2025.11.15.688601, “A multiplexed approach for genetic screening of human cells by electron microscopy uncovers a critical effector of mitochondrial cristae shape” (bioRxiv, 2025).

Molecular target: the molecule itself
Test: SEC-MALS; about 10 mg/ml applied to Superdex 200 Increase 10/300 in PBS; DAWN HELEOS and Optilab T-rEX detectors

B1: Recombinant MISHA/FAM136A (sample of the SEC-MALS analysis) (natural protein)
chain: not shown
notes: human FAM136A/MISHA, Uniprot Q96C01, printed as 138 amino acids (the whole entry); tag removed before the assay; Applied at about 10 mg/ml; also called Mitochondrial-IMS membrane-SHApe-impacting protein; source: E. coli SHuffle, purified; tag cleaved in both
stoichiometry N: 2
